Data on one substance can be found in patent publication US6313088A, “8-[(2-hydroxy-4-methoxy benzoyl) amino]-octanoic acid compositions for delivering active agents” (Emisphere Technologies, Inc., priority 1997, dated 2001).

Details of the series: species or system Rats. Conditions: rat, in vivo, 1 mg/kg. The procedure: Rats were administered the dosing composition by intracolonic instillation.

Turning to interferon, the “Mean peak serum interferon concentration” value is 79±100.
